{"source": "paper doi:10.1101/2023.04.13.536796", "molecular_target": "SEL1L S658P, endogenous, liver of knock-in mice (mouse (endogenous in liver)) (UniProt Q9Z2G6)", "sequence (Q9Z2G6 22-790, stated change not applied)": "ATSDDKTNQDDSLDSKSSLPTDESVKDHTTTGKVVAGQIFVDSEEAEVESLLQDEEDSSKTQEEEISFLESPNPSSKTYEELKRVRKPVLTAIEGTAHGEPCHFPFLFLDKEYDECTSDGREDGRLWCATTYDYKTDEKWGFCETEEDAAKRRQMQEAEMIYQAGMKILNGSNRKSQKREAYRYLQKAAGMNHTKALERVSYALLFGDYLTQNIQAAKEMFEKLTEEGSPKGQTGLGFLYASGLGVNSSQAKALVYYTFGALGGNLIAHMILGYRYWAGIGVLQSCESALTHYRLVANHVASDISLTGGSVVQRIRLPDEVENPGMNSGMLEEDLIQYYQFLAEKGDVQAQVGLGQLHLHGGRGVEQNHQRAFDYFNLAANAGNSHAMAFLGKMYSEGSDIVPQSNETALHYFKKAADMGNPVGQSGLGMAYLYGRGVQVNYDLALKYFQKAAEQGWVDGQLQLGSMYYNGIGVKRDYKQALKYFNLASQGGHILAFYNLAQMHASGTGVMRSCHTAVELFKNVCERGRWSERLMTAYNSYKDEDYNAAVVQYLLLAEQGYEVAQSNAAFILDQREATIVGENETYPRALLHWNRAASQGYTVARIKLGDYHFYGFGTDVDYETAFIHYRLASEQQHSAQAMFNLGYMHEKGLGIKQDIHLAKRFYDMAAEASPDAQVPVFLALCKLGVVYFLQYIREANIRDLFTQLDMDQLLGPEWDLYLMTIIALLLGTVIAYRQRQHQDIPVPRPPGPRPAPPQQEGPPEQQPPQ", "experiment": "co-IP", "data": [{"substance": "HRD1, endogenous, mouse liver (from UniProt Q9DBY1 1-612) (natural protein)", "values": [{"measurement": "fold reduction of co-precipitated HRD1 against WT livers", "value": 5, "unit": "fold"}]}]}
